We go through seven molecules from US10772928B2, “Modulation and detection of a neuronal alternative splicing regulatory network for treatment and diagnosis of neurological disorders” (The Governing Council of the University of Toronto, priority 2014, dated 2020).

This assay deals with T1, nSR100 (Mus musculus, UniProt Q8BKA3).
T1 construct: host or cells: mouse N2A cells
T1 sequence (Q8BKA3 1-608): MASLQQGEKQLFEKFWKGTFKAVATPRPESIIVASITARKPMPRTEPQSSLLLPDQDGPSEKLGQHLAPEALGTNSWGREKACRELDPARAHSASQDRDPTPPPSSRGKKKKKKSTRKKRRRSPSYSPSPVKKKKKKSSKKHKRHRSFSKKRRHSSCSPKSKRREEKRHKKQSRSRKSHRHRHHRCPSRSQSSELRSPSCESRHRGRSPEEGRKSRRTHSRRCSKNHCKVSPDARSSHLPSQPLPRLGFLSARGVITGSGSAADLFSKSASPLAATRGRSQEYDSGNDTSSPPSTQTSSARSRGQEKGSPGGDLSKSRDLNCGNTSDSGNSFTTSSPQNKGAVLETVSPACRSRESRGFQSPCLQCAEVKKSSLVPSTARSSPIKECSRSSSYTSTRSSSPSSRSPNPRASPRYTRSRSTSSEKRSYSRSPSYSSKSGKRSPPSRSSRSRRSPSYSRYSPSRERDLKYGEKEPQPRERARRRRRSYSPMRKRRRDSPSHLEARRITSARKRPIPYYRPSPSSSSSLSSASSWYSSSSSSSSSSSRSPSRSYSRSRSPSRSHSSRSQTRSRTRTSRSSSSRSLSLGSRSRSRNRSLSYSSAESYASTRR
The assay can be described thus: AP-MS nSR100 interaction partners from mouse N2A cells (Table 5). The format is binding. The following applies: for AvgP (average of the SAINT scores) / MaxP (maximal SAINT score): bait Srrm4; for FoldChange between the prey Avg spectra of the bait and control purifications: bait Srrm4, 0.1 added to prevent division by 0; for AvgSpec (average number of spectra per replicate): bait Srrm4, 2 replicates; for Spectra (number of spectra for the prey in the purification of the bait): AP-MS; for SpecSum: bait Srrm4, sum of spectra over 2 replicates.

Setting [1] is: bait Srrm4, biological replicate 1 (first number of the cell).
The mark [2] stands for this setting: bait Srrm4, biological replicate 2 (second number of the cell).

Text: By applying affinity purification coupled to mass-spectrometry (AP-MS), several interaction nSR100 partner proteins were detected that provide insight into mechanisms of post-translational regulation of nSR100 levels.

B1: Ddx41 (protein, UniProt Q91VN6 1-622, looked up)
Probable ATP-dependent RNA …: MEDSEPERKRARADEATAGGSRSEDEDEDDEDYVPYVPLRQRRQLLLQKLLQRRRKGATEEEQQDSGSEPRGDEDDIPLGPQSNVSLLDQHQHLKEKAEARKESAKEKQLKEEEKILESVAEGRALMSVKEMAKGITYDDPIKTSWTPPRYVLSMSEERHERVRKKYHILVEGDGIPPPIKSFKEMKFPAAILRGLKKKGILHPTPIQIQGIPTILSGRDMIGIAFTGSGKTLVFTLPVIMFCLEQEKRLPFSKREGPYGLIICPSRELARQTHGILEYYCRLLQEDSSPLLRCALCIGGMSVKEQMETIRHGVHMMVATPGRLMDLLQKKMVSLDICRYLALDEADRMIDMGFEGDIRTIFSYFKGQRQTLLFSATMPKKIQNFAKSALVKPVTINVGRAGAASLDVIQEVEYVKEEAKMVYLLECLQKTPPPVLIFAEKKADVDAIHEYLLLKGVEAVAIHGGKDQEERTKAIEAFREGKKDVLVATDVASKGLDFPAIQHVINYDMPEEIENYVHRIGRTGRSGNTGIATTFINKACDESVLMDLKALLLEAKQKVPPVLQVLHCGDESMLDIGGERGCAFCGGLGHRITDCPKLEAMQTKQVSNIGRKDYLAHSSMDF
For the molecule B1, the “AvgP (average of the SAINT scores)” value was 1; the “MaxP (maximal SAINT score)” value is listed as 1; the “FoldChange between the prey Avg spectra of the bait and control purifications” value (shortened to “FoldChange between the prey Avg spectra”) was found to be 65; the “AvgSpec (average number of spectra per replicate)” value came to 6.5. Besides, the SpecSum was 13. In addition, under setting [1], the “Spectra (number of spectra for the prey in the purification of the bait)” value was determined as 6. Besides, the “Spectra (number of spectra for the prey in the purification of the bait)” value under setting [2] is recorded as 7.

B2: Snrpb2 (protein, UniProt Q9CQI7 1-225, looked up)
U2 small nuclear …: MDIRPNHTIYINNMNDKIKKEELKRSLYALFSQFGHVVDIVALKTMKMRGQAFVIFKELGSSTNALRQLQGFPFYGKPMRIQYAKTDSDIISKMRGTFADKEKKKEKKKAKTMEQAAAAANKKPGQGTPNAANTQGTAAPNPQVPDYPPNYILFLNNLPEETNEMMLSMLFNQFPGFKEVRLVPGRHDIAFVEFENDGQAGAARDALQGFKITPSHAMKITYAKK
As to B2, the “AvgP (average of the SAINT scores)” value amounted to 1; the “MaxP (maximal SAINT score)” value is listed as 1; the “FoldChange between the prey Avg spectra” value was 55; the “AvgSpec (average number of spectra per replicate)” value is listed as 5.5. Further, the SpecSum was determined as 11. Moreover, the “Spectra (number of spectra for the prey in the purification of the bait)” value under setting [1] stood at 6. Moreover, the “Spectra (number of spectra for the prey in the purification of the bait)” value under setting [2] turned out to be 5.

B3: Snx8 (protein, UniProt Q8CFD4 1-459, looked up)
Sorting nexin-8: MTGRAMDPLPSPAVAAAAEAEADEEADPPATGPRTSQVTEWRALDPGRMQMPQGNPLLLSYTLQELLAKDTVQVELIPEKKGLFLKHVEYEVSSQRFKSSVYRRYNDFVVFHEVLLHKFPYRMVPALPPKRVLGADREFIEGRRRALKRFINLVARHPPFSEDVLLKLFLSFSGSDVQHKLKEAAQCVGDEFMNCKLAARAKDFLPADIQTQFAMSRELIRNVYNSFYKLRDRAERIASRAIDNAADLLIFGKELSALGSDTTPLPSWAALHLSTWGSLKQALKGLSVEFALLADRAAQQGKKEENDVVEKLNLFLDLLQSYKDLCERHEKGVLHKHQRALHKYGLMKRQMMSAAHGREPESVEQLESRIVEQENVIQTMELRNYFSLYCLHQETQLVHVYLPLTSHILGAFVNSQIQGHKEMSKVWNDLKPKLSCLFAGPHSVLTPPRSPQEDGVCPH
As to B3, the “AvgP (average of the SAINT scores)” value was found to be 1; the “MaxP (maximal SAINT score)” value was determined as 1; the “FoldChange between the prey Avg spectra” value stood at 145; the “AvgSpec (average number of spectra per replicate)” value is listed as 14.5. The molecule also came in with a SpecSum of 29. The “Spectra (number of spectra for the prey in the purification of the bait)” value under setting [1] is reported as 11. For the same molecule, the “Spectra (number of spectra for the prey in the purification of the bait)” value under setting [2] was determined as 18.

B4: Luc7l3 (protein, UniProt Q5SUF2 1-432, looked up)
Luc7-like protein 3: MISAAQLLDELMGRDRNLAPDEKRSNVRWDHESVCKYYLCGFCPAELFTNTRSDLGPCEKIHDENLRKQYEKSSRFMKVGYERDFLRYLQSLLAEVERRIRRGHARLALSQNQQSSGAAGPTGKNEEKIQVLTDKIDVLLQQIEELGSEGKVEEAQGMMKLVEQLKEERELLRSTTSTIESFAAQEKQMEVCEVCGAFLIVGDAQSRVDDHLMGKQHMGYAKIKATVEELKEKLRKRTEEPDRDERLKKEKQEREEREKEREREREERERKRRREEEEREKERARDRERRKRSRSRSRHSSRTSDRRCSRSRDHKRSRSRDRRRSRSRDRRRSRSHDRSERKHRSRSRDRRRSKSRDRKSYKHRSKSRDREQDRKSKEKEKKGSDDKKSSVKSSSREKQSEDTNPESKESDTKNEVNGTSEDIKSEGDTQSN
Consider B4, for which the “AvgP (average of the SAINT scores)” value came out at 1; the “MaxP (maximal SAINT score)” value turned out to be 1; the “FoldChange between the prey Avg spectra” value was 7.33; the “AvgSpec (average number of spectra per replicate)” value is given as 55. This molecule yielded a SpecSum of 110. The “Spectra (number of spectra for the prey in the purification of the bait)” value under setting [1] came out at 45. For the same molecule, the “Spectra (number of spectra for the prey in the purification of the bait)” value under setting [2] is given as 65.

B5: Cdc5l (protein, UniProt Q6A068 1-802, looked up)
Cell division cycle 5-like …: MPRIMIKGGVWRNTEDEILKAAVMKYGKNQWSRIASLLHRKSAKQCKARWYEWLDPSIKKTEWSREEEEKLLHLAKLMPTQWRTIAPIIGRTAAQCLEHYEFLLDKTAQRDNEEETTDDPRKLKPGEIDPNPETKPARPDPIDMDEDELEMLSEARARLANTQGKKAKRKAREKQLEEARRLAALQKRRELRAAGIEIQKKRKKKRGVDYNAEIPFEKKPALGFYDTSEENYQALDADFRKLRQQDLDGELRSEKEGRDRKKDKQHLKRKKESDLPSAILQTSGVSEFTKKRSKLVLPAPQISDAELQEVVKVGQASEVARQTAEESGITNSASSTLLSEYNVTNNSIALRTPRTPASQDRILQEAQNLMALTNVDTPLKGGLNTPLHESDFSGVTPQRQVVQTPNTVLSTPFRTPSNGAEGLTPRSGTTPKPVTNATPGRTPLRDKLNINPEDGMADYSDPSYVKQMERESREHLRLGLLGLPAPKNDFEIVLPENAEKELEEREIDDTYIEDAADVDARKQAIRDAERVKEMKRMHKAVQKDLPRPSEVNETILRPLNVEPPLTDLQKSEELIKKEMITMLHYDLLHHPYEPSGNKKGKNVGFATNNSEHITYLEHSPYEKFSKEDLKKAQDALVQEMEVVKQGMSHGELSSEAYNQVWEECYSQVLYLPAQSRYTRANLASKKDRIESLEKRLEINRGHMTTEAKRAAKMEKKMKILLGGYQSRAMGLMKQLNDLWDQIEQAHLELRTFEELKKHEDSAIPRRLECLKEDVQRQQEREKELQQRYADLLMEKETLQAKF
As to B5, the “AvgP (average of the SAINT scores)” value was 1; the “MaxP (maximal SAINT score)” value is 1; the “FoldChange between the prey Avg spectra” value is recorded as 110; the “AvgSpec (average number of spectra per replicate)” value is recorded as 11. The molecule further yielded a SpecSum of 22. Also, under setting [1], the “Spectra (number of spectra for the prey in the purification of the bait)” value came out at 10. In addition, under setting [2], the “Spectra (number of spectra for the prey in the purification of the bait)” value was 12.

B6: Pgam5 (protein, UniProt Q8BX10 1-288, looked up)
Serine/threonine-protein …: MAFRQALQLAACGLAGGSAAVLFSAVAVGKPRGGGDADTRATEPPAWTGARAGRGVWDTNWDRREPLSLINLKKRNVESGEDELTSRLDHYKAKATRHIFLIRHSQYHVDGSLEKDRTLTPLGREQAELTGLRLASLGLKFNKIVHSSMTRAVETTDIISKHLPGVSRVSTDLLREGAPIEPDPPVSHWKPEAVQYYEDGARIEAAFRNYIHRADARQEEDSYEIFICHANVIRYIVCRALQFPPEGWLRLSLNNGSITHLVIRPNGRVALRTLGDTGFMPPDKITRS
In the case of B6, the “AvgP (average of the SAINT scores)” value is 1; the “MaxP (maximal SAINT score)” value worked out at 1; the “FoldChange between the prey Avg spectra” value stood at 160; the “AvgSpec (average number of spectra per replicate)” value was found to be 16. The molecule further gave a SpecSum of 32. The “Spectra (number of spectra for the prey in the purification of the bait)” value under setting [1] is 20. Moreover, the “Spectra (number of spectra for the prey in the purification of the bait)” value under setting [2] is on record as 12.

B7: Necap1 (protein, UniProt Q9CR95 1-275, looked up)
Adaptin ear-binding …: MAAELEYESVLCVKPDVSVYRIPPRASNRGYRASDWKLDQPDWTGRLRITSKGKIAYIKLEDKVSGELFAQAPVEQYPGIAVETVTDSSRYFVIRIQDGTGRSAFIGIGFTDRGDAFDFNVSLQDHFKWVKQETEISKESQEMDNRPKLDLGFKEGQTIKLSIGNITAKKGGASKPRASGTGGLSLLPPPPGGKVTIPPPSSSVAISNHVTPPPIPKSNHGGNDSDILLDLDSPAPVSTSAPAPVSTSNDLWGDFSTASSSVPNQAPQPSNWVQF
Turning to B7, the “AvgP (average of the SAINT scores)” value was 1; the “MaxP (maximal SAINT score)” value came to 1; the “FoldChange between the prey Avg spectra” value stood at 125; the “AvgSpec (average number of spectra per replicate)” value is on record as 12.5. The SpecSum is given as 25. The “Spectra (number of spectra for the prey in the purification of the bait)” value under setting [1] is 12. Besides, under setting [2], the “Spectra (number of spectra for the prey in the purification of the bait)” value amounted to 13.
